Results as given in patent publication US20260250421A1 (BIOCYTOGEN PHARMACEUTICALS BEIJING, published 2026).

Columns and labels:
[1] = target: T1, human PTK7 on human cancer cell lines (human, UniProt Q13308 31-1070); assay: flow cytometry, BT-20 cells, Ab 5 ug/mL
T1 construct: Endogenous PTK7 of human tumour cell lines; also called PTK7 on A-431, NCI-H520, NCI-N87, SK-OV-3, BT-20, HCC1954, NCI-H226, NCI-H358, HCT116, PC-3, NCI-H292, NCI-H1975 cells
T1 sequence: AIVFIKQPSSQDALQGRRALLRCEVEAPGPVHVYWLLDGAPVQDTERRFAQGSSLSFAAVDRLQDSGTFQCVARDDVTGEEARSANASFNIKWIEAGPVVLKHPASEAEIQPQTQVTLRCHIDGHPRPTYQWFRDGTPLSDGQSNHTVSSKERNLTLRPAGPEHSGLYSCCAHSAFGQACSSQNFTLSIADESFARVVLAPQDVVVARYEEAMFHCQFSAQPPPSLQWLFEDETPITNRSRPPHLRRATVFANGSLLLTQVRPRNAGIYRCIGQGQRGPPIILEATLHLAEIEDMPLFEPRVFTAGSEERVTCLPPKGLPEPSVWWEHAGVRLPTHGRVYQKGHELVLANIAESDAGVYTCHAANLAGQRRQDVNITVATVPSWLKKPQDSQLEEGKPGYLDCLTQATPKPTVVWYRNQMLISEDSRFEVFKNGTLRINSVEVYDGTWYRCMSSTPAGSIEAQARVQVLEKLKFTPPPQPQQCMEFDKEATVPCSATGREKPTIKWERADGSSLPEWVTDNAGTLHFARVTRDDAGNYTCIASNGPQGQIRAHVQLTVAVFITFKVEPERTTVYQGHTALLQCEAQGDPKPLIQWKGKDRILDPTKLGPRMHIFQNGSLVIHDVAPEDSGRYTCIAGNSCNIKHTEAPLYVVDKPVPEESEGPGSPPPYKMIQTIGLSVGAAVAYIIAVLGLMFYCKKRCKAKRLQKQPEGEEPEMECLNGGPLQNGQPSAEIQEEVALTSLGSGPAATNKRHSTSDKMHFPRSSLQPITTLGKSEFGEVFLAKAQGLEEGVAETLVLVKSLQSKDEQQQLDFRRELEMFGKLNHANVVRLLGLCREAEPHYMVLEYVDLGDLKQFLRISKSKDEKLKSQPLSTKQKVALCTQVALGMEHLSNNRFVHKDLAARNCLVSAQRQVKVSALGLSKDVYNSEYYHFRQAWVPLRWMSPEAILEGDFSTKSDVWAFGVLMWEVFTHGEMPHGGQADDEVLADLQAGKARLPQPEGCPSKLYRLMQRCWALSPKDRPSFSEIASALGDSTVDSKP
Procedure: (§1) The binding activity of anti-PTK7 antibodies to cancer cell lines was verified by flow cytometry. […] Purified anti-PTK7 antibody with a concentration of 5 μg/mL was added to each well and was incubated at 4° C. for 30 minutes. […] The cells were collected, and the mean fluorescence intensity (MFI) was determined. Human IgG1 was used as ISO control.

[2] = target: T2, dog PTK7 on dog cancer cell lines (dog, UniProt A0A8I3N574 31-1070); assay: flow cytometry, D-17 dog cells, Ab 5 ug/mL
T2 construct: whole, on cells; Endogenous protein on dog tumour cell lines; also called PTK7 on CMT-U27 and D-17 cells; dog cancer cells
T2 sequence: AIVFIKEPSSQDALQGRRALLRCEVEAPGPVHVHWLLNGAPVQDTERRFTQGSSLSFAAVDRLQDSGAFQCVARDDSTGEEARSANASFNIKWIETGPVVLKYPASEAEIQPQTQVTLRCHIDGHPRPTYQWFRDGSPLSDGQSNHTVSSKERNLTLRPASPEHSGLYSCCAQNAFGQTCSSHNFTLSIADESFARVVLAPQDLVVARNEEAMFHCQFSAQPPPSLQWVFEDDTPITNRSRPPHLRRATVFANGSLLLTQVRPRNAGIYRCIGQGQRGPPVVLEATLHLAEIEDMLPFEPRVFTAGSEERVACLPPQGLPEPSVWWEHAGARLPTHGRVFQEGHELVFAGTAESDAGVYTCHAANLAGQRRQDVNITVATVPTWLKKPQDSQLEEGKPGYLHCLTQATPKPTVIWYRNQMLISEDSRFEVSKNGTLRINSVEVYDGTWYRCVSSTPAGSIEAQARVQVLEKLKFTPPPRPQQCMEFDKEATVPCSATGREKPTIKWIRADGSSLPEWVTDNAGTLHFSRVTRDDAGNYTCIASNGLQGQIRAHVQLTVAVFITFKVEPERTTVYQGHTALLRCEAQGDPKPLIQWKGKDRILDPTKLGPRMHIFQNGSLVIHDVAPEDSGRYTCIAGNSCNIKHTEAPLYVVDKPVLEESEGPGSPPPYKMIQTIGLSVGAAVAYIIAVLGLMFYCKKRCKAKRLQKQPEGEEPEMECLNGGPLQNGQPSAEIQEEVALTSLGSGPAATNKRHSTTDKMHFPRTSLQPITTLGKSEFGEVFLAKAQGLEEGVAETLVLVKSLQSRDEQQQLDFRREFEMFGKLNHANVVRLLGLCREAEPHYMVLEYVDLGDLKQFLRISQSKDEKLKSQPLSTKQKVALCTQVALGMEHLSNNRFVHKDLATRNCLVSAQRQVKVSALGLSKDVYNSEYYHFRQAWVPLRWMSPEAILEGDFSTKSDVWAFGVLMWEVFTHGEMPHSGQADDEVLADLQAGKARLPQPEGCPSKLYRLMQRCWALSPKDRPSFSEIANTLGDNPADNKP
Procedure: as §1

B1: 1A7 (antibody, human IgG1, V domains shown)
VH: QVQLVESGGGVVQPGRSLRLSCAASGFTFSNYGMHWVRQAPGKGLEWVAVIYYDGSNKFYADSVKGRFTISRDNSKNTLYLQMSSLRAEDTAVYYCARDVAPPGSRAEYFHHWGQGTLVTVSS
VL: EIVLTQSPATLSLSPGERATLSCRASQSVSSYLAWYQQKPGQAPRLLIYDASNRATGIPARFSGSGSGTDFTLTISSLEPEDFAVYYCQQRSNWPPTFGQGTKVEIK
notes: also called anti-PTK7 antibody 1A7
MFI [1]: 86200 | MFI [2]: 120000

B2: 2F5 (antibody, V domains shown)
VH: QVQLVESGGGVVQPGRSLRLSCVASGFTFSNYGMHWVRQAPGKGLEWVAIIYYDGSNKYYADSVKGRFTISRDNSKNTLYLQMNSLRAEDTAVYYCARDVAAAGSRAEYLHHWGQGTLVTVSS
VL: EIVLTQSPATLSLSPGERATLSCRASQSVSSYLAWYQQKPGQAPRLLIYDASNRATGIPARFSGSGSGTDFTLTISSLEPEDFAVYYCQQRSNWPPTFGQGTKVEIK
notes: also called anti-PTK7 antibody 2F5
MFI [1]: 83800 | MFI [2]: 131000

B3: 2D11 (antibody, V domains shown)
VH: QVQLVESGGGVVQPGRSLRLSCAASGFTFSSYGMHWVRQAPGKGLEWVAVIFYDGSNKYYADSVKGRFTISRDNSKNTLYLQMNSLRAEDTSVYYCARDVAAPGSRAEYFQNWGQGTLVTVSS
VL: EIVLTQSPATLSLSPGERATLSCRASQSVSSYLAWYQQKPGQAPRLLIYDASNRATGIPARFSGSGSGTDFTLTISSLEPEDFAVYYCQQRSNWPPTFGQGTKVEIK
notes: also called anti-PTK7 antibody 2D11
MFI [1]: 172000 | MFI [2]: 106000

B4: 2A5 (antibody, V domains shown)
VH: QVQLVQSGGGVVQPGRSLRLSCAASGFTFSNYGMHWVRQAPGKGLEWVAVIWYDGRNKYYADSVKGRFTISRDNSKNTLYLQMNSLRAEDTAVYYCARDVAPAGSRAEYFQNWGQGTLVTVSS
VL: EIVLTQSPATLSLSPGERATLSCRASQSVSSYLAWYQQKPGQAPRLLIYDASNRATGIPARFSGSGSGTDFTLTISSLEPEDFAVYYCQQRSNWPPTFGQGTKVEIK
notes: also called anti-PTK7 antibody 2A5
MFI [1]: 137000 | MFI [2]: 95900

B5: 1A11 (antibody, V domains shown)
VH: QVQLVQSGPGLVKPSETLSLTCTVSGGSINSYYWNWIRQPPGKGLEWIGYIYYSGSTNYNPSLKSRVTISVDTSKNQFSLKLSSVTAADTAVYYCARDPHDYIRGHFDLWGRGTLFTVSS
VL: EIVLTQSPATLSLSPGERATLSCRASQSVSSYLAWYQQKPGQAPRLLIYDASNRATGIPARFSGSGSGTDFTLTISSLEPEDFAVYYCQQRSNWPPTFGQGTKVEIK
notes: also called anti-PTK7 antibody 1A11
MFI [1]: 136000 | MFI [2]: 90600

B6: 1F2 (antibody, V domains shown)
VH: QVQLVQSGGGLVQPGGSLRLSCAASGFTFSRYEMNWVRQAPGKGLEWVSYINSIGSAINYADSVKGRFTISRDNAKNSLYLQMRSLRAEDTAVYYCVREDNWNPGYWGQGTLVTVSS
VL: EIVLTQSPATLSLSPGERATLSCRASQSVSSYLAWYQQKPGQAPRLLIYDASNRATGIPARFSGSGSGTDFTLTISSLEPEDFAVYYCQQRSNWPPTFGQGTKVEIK
notes: also called anti-PTK7 antibody 1F2
MFI [1]: 50900 | MFI [2]: 64100

B7: 3C4 (antibody, V domains shown)
VH: QVQLEQSRAEVKKPGESLRISCKGSGYSFTSYWISWVRQMPGKGLEWMGRIDPSDSYTNYNPSFQGHVTISADKSISTAYLQWSSLKASDTAMYYCARRDGSYFDFDYWGQGTLVTVSS
VL: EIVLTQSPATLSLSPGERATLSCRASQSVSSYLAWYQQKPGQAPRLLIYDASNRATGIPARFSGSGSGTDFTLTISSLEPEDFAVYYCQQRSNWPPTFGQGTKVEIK
notes: also called anti-PTK7 antibody 3C4
MFI [1]: 148000 | MFI [2]: 34600

B8: 3E6 (antibody, V domains shown)
VH: QVQLVESGAEVKKPGESLRISCRGSGYSFTSYWISWVRQMPGKGLEWMGRIDPSDSYTKYSPSFQGHVTISADKSISTAYLQWSSLKASDTAMYYCARRDGDYFDFDYWGQGTLVTVSS
VL: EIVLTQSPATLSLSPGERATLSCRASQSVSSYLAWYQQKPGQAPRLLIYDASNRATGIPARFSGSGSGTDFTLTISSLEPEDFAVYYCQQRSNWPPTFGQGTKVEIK
notes: also called anti-PTK7 antibody 3E6
MFI [1]: 152000 | MFI [2]: 86300
